This passage reports Kd results from paper PMC10086585.

The target in this test is recombinant human netrin‐1 (R&D), on HIS1K biosensors (human) (UniProt O95631). Kind of test: BLI; netrin-1 on HIS1K biosensors; m-Laminin-I at 3.12-100 nM; 30°C, 1,000 rpm; PBS, 0.02% Tween-20, 0.1% BSA; 5 min association, 5 min dissociation. (In general: Biolayer interferometry detects binding as a change in optical thickness at a sensor tip.)

Turning to mouse laminin‐I (complex), the Kd amounted to 29.5 nM.

One may read the Kd as the equilibrium constant for the complex coming apart.
